Source: patent publication US20060264369, “Aptamers to von Willebrand Factor and their use as thrombotic disease therapeutics” (published 2006)
Substitutions are numbered along the chain they refer to.

B1: AMX200.A11 (ssDNA)
DNA: CTACCTACGATCTGACTAGCTGAGTAGTTAGTAACTTTTTATTATGGTTTGGTGGGTCTGGCTTACTCTCATGTAGTTCC
B2: AMX200.H8 (ssDNA)
DNA: B1 DNA with T29C, C35T, T57C
B3: AMX199.F11 (ssDNA)
DNA: CTACCTACGATCTGACTAGCGAAACACTAGGTTGGTTAGGATTGGTGTGTTTCTGCTCTGCTTACTCTCATGTAGTTCC
B4: AMX202.H10 (ssDNA)
DNA: CTACCTACGATCTGACTAGCGGAATGAGAAGGCTGGTGGATTGCTCAGGTCTGCTGGCTGCTTACTCTCATGTAGTTCC
B5: AMX202.A3 (ssDNA)
DNA: B4 DNA with A30G, G31C, G36A
B6: AMX202.B8 (ssDNA)
DNA: B4 DNA with A29T, G31T, G36A
B7: AMX202.D6 (ssDNA)
DNA: B4 DNA with G36A
B8: AMX199.F8 (ssDNA)
DNA: CTACCTACGATCTGACTAGCAAGGGGATTGGCTCCGGGTCTGGCGTGCTTGGCACCTCTGGCTTACTCTCATGTAGTTCC
B9: AMX199.B6 (ssDNA)
DNA: B8 DNA with C53T, T59C
B10: AMX199.D8 (ssDNA)
DNA: B8 DNA with C55T, C58T, T59C
B11: AMX200.E10 (ssDNA)
DNA: B8 DNA with T50C, C58T
B12: AMX202.F6 (ssDNA)
DNA: B8 DNA with T50C, C58T, T59C
B13: ARC1362 (mixed)
mixed: GCGUGCAGUGCCUUCGGCCGTGCGGTGCCUCCGUCACGC
modifications: 2'-OMe at 1-4,8-18,20,22,27,28,30,33,34,36-39, rest deoxy; PS between 4 and 5; 3'-idT
B14: ARC1380 (mixed)
mixed: B13 mixed
modifications: 2'-OMe at 1-4,8-18,20,22,27,28,30,33,34,36-39, rest deoxy; PS between 34 and 35; 3'-idT
B15: ARC1367 (mixed)
mixed: B13 mixed
modifications: 2'-OMe at 1-4,8-18,20,22,27,28,30,33,34,36-39, rest deoxy; PS between 19 and 20; 3'-idT
B16: ARC1370 (mixed)
mixed: B13 mixed
modifications: 2'-OMe at 1-4,8-18,20,22,27,28,30,33,34,36-39, rest deoxy; PS between 22 and 23; 3'-idT
B17: ARC1379 (mixed)
mixed: B13 mixed
modifications: 2'-OMe at 1-4,8-18,20,22,27,28,30,33,34,36-39, rest deoxy; PS between 32 and 33; 3'-idT
B18: ARC1373 (mixed)
mixed: B13 mixed
modifications: 2'-OMe at 1-4,8-18,20,22,27,28,30,33,34,36-39, rest deoxy; PS between 25 and 26; 3'-idT
B19: ARC1374 (mixed)
mixed: B13 mixed
modifications: 2'-OMe at 1-4,8-18,20,22,27,28,30,33,34,36-39, rest deoxy; PS between 26 and 27; 3'-idT
B20: ARC1376 (mixed)
mixed: B13 mixed
modifications: 2'-OMe at 1-4,8-18,20,22,27,28,30,33,34,36-39, rest deoxy; PS between 29 and 30; 3'-idT
B21: ARC1377 (mixed)
mixed: B13 mixed
modifications: 2'-OMe at 1-4,8-18,20,22,27,28,30,33,34,36-39, rest deoxy; PS between 30 and 31; 3'-idT
B22: ARC1372 (mixed)
mixed: B13 mixed
modifications: 2'-OMe at 1-4,8-18,20,22,27,28,30,33,34,36-39, rest deoxy; PS between 24 and 25; 3'-idT
B23: ARC1364 (mixed)
mixed: B13 mixed
modifications: 2'-OMe at 1-4,8-18,20,22,27,28,30,33,34,36-39, rest deoxy; PS between 6 and 7; 3'-idT
B24: ARC1369 (mixed)
mixed: B13 mixed
modifications: 2'-OMe at 1-4,8-18,20,22,27,28,30,33,34,36-39, rest deoxy; PS between 21 and 22; 3'-idT
B25: ARC1381 (mixed)
mixed: B13 mixed
modifications: 2'-OMe at 1-4,8-18,20,22,27,28,30,33,34,36-39, rest deoxy; PS between 35 and 36; 3'-idT
B26: ARC1375 (mixed)
mixed: B13 mixed
modifications: 2'-OMe at 1-4,8-18,20,22,27,28,30,33,34,36-39, rest deoxy; PS between 28 and 29; 3'-idT
B27: ARC1378 (mixed)
mixed: B13 mixed
modifications: 2'-OMe at 1-4,8-18,20,22,27,28,30,33,34,36-39, rest deoxy; PS between 31 and 32; 3'-idT
B28: ARC1365 (mixed)
mixed: B13 mixed
modifications: 2'-OMe at 1-4,8-18,20,22,27,28,30,33,34,36-39, rest deoxy; PS between 7 and 8; 3'-idT
B29: ARC1371 (mixed)
mixed: B13 mixed
modifications: 2'-OMe at 1-4,8-18,20,22,27,28,30,33,34,36-39, rest deoxy; PS between 23 and 24; 3'-idT
B30: ARC1363 (mixed)
mixed: B13 mixed
modifications: 2'-OMe at 1-4,8-18,20,22,27,28,30,33,34,36-39, rest deoxy; PS between 5 and 6; 3'-idT
B31: ARC1366 (mixed)
mixed: B13 mixed
modifications: 2'-OMe at 1-4,8-18,20,22,27,28,30,33,34,36-39, rest deoxy; PS between 18 and 19; 3'-idT
B32: AMX206.F9 (mixed)
DNA: GGAGCGCACTCAGCCACGGAGCGTCGGTGATGGATTAGCGCGGCTCCGTGGTACACATTTCGACCTCTCTGCTAGC
modifications: 2'-OH purines, deoxy pyrimidines
B33: AMX206.E7 (mixed)
DNA: B32 DNA with A57C
modifications: 2'-OH purines, deoxy pyrimidines
B34: AMX206.H9 (mixed)
DNA: B32 DNA with C44T, A57C
modifications: 2'-OH purines, deoxy pyrimidines
B35: AMX205.F9 (mixed)
DNA: B32 DNA with A55G, A57C
modifications: 2'-OH purines, deoxy pyrimidines
B36: AMX203.D6 (mixed)
DNA: GGAGCGCACTCAGCCACAGTTCTGTCGGTGATGAATTAGCGCGAGAGCTGTGGGACGTTTCGACCTCTCTGCTAGC
modifications: 2'-OH purines, deoxy pyrimidines
B37: AMX203.A1 (mixed)
DNA: B36 DNA with A44G
modifications: 2'-OH purines, deoxy pyrimidines
B38: AMX206.D8 (mixed)
DNA: GGAGCGCACTCAGCCACGACGGTGATGGATTAGCGCGGTGGATCTTAACGTGCGAGTTTCGACCTCTCTGCTAGC
modifications: 2'-OH purines, deoxy pyrimidines
B39: AMX203.G9 (ARC842) (mixed)
DNA: GGAGCGCACTCAGCCACGGGGTGGGTAGACGGCGGGTATGTGGCTGGTGTCGAAGGGTTTCGACCTCTCTGCTAGC
modifications: 2'-OH purines, deoxy pyrimidines
B40: AMX205.H10 (mixed)
DNA: GGAGCGCACTCAGCCACTGTTGCCGACGGTGATGTATTAACGCGGGCAACGTTGGTGTTTCGACCTCTCTGCTAGC
modifications: 2'-OH purines, deoxy pyrimidines
B41: AMX205.H8 (mixed)
DNA: GGAGCGCACTCAGCCACAAACGGACGGTGATGGATTAACGCGGGTTTATGGCAAGGTTTCGACCTCTCTGCTAGC
modifications: 2'-OH purines, deoxy pyrimidines
B42: AMX205.H11 (mixed)
DNA: GGAGCGCACTCAGCCACGGCACGACGGTGATGGATTAGCGCGGTGTCGGTGGTGTCATTTCGACCTCTCTGCTAGC
modifications: 2'-OH purines, deoxy pyrimidines
B43: AMX206.A10 (mixed)
DNA: B42 DNA with C22T, G33A
modifications: 2'-OH purines, deoxy pyrimidines
B44: AMX206.D7 (mixed)
DNA: B42 DNA with G33A, C56T
modifications: 2'-OH purines, deoxy pyrimidines
B45: AMX205.D11 (mixed)
DNA: B42 DNA with G33A
modifications: 2'-OH purines, deoxy pyrimidines
B46: AMX205.F7 (ARC841) (mixed)
DNA: GGAGCGCACTCAGCCACACGACATTGGCGGGTTGTAATTACCACGCATGGCTGTTTGTTTCGACCTCTCTGCTAGC
modifications: 2'-OH purines, deoxy pyrimidines
B47: AMX205.H9 (mixed)
DNA: GGAGCGCACTCAGCCACGACGGTGATGGATTAGCGCGGTGGAGAAGATGCGCTGTTGTTTCGACCTCTCTGCTAGC
modifications: 2'-OH purines, deoxy pyrimidines

target: von Willebrand factor A1 domain (human) (Homo sapiens, UniProt P04275 SEQ:13-246); assay: filter; 100 nM protein; settings: not given
Protocol: All unique clones were assayed in a 3-point dot blot screen (no protein target control, 100 nM human vWF A1 domain (SEQ ID NO 5), or 100 nM rabbit vWF A1 domain (SEQ ID NO 6). The data are presented in the third and fourth columns of Table 14 below as the ratio of the fraction of the aptamer bound to the nitrocellulose in the presence of the target protein to the fraction of aptamer bound in the absence of the target protein.

Row | Binder | binding signal
1 | B1 | 1.49 ratio to no protein
2 | B2 | 1.86 ratio to no protein
3 | B3 | 1.44 ratio to no protein
4 | B4 | 1.92 ratio to no protein
5 | B5 | 2.28 ratio to no protein
6 | B6 | 1.66 ratio to no protein
7 | B7 | 1.94 ratio to no protein
8 | B8 | 1.78 ratio to no protein
9 | B9 | 2.01 ratio to no protein
10 | B10 | 1.89 ratio to no protein
11 | B11 | 1.69 ratio to no protein
12 | B12 | 1.49 ratio to no protein

target: von Willebrand factor full length (Homo sapiens, UniProt P04275 SEQ:764-2813); assay: filter; settings: tags: Calbiochem 681300
Protocol: For KD determination, chemically synthesized aptamers were purified using denaturing polyacrylamide gel electrophoresis, 5′end labeled with γ-³²P ATP and were tested for direct binding to full length human vWF (Calbiochem Cat.# 681300, La Jolla, Calif.). An 8 point protein titration was used in the dot blot binding assay (100 nM, 30 nM, 10 nM, 3 nM, 1 nM, 300 pM, 100 pM, 0 pM)) in 1× Dulbecco's PBS containing […] (final volume of 50 uL) for 30 minutes at room temperature. KD values were calculated by fitting the equation y=(max/(1+K/protein))+yint using KaleidaGraph (KaleidaGraph v. 3.51, Synergy Software).

Row | Binder | Kd
13 | B13 | 9.9 nM
14 | B14 | 12 nM
15 | B15 | 13.9 nM
16 | B16 | 10.1 nM
17 | B17 | 10.4 nM
18 | B18 | 7.1 nM
19 | B19 | 9.5 nM
20 | B20 | 4.4 nM
21 | B21 | 7.4 nM
22 | B22 | 23.5 nM
23 | B23 | 8.2 nM
24 | B24 | 16.3 nM
25 | B25 | 8.7 nM
26 | B26 | 8.8 nM
27 | B27 | 9.1 nM
28 | B28 | 10.8 nM
29 | B29 | 8.4 nM
30 | B30 | 12.7 nM
31 | B31 | 15.5 nM

target: von Willebrand factor A1 domain (Homo sapiens, UniProt P04275 SEQ:13-246); assay: filter; DPBS, 0.1 mg/mL BSA, RT; settings: label: 5'-32P
Protocol: Based on this initial screen, KD's were determined for 16 of the best vWF dependent binding sequences using the dot blot assay. […] A 6 point protein titration of human vWF A1 domain (SEQ ID NO 5) was used in the dot blot assay (333 nM, 100 nM, 33 nM, 10 nM, 3 nM, 0 nM) in 1× DPBS plus 0.1 mg/mL BSA at room temperature for 30 minutes. KD values were calculated by fitting the equation y=(max/(1+K/protein))+yint using KaleidaGraph (KaleidaGraph v. 3.51, Synergy Software).

Row | Binder | Kd
32 | B32 | 139 nM
33 | B33 | 151 nM
34 | B34 | 109 nM
35 | B35 | 145 nM
36 | B36 | 523 nM
37 | B37 | 1150 nM
38 | B38 | 370 nM
39 | B39 | 1.3 nM
40 | B40 | 397 nM
41 | B41 | 788 nM
42 | B42 | 144 nM
43 | B43 | 111 nM
44 | B44 | 187 nM
45 | B45 | 124 nM
46 | B46 | 1.5 nM
47 | B47 | 178 nM
